Experimental data from US20050048627A1.

Molecular target: MMP-2 (UniProt P08253)
Assay: cell-based or functional assay

UniProt P08253, sequence (P08253 110-660 limits assumed): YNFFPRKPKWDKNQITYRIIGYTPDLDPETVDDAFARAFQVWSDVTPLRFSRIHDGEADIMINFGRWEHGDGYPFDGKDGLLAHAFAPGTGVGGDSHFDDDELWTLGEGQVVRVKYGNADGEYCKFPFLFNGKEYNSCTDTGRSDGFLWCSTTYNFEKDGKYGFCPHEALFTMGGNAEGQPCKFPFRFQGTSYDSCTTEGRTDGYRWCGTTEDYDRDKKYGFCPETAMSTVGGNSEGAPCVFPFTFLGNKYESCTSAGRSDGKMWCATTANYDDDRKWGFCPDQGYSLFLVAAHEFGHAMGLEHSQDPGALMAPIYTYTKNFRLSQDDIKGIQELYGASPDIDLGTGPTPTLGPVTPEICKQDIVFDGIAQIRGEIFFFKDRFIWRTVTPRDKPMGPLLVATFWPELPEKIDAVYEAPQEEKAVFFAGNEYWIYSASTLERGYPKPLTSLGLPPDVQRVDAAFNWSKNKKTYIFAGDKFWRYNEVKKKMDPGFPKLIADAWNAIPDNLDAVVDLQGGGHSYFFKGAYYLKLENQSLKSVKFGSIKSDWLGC

inhibition of MMP-2 activity (spectrofluorometric assay, 10 nM MMP-2, 10 µM MCA-Pro-Leu-Gly-Leu-Dap(Dnp)-Ala-Arg-NH2 substrate) at 7.5 µg/ml HSA-TIMP2: 37%
inhibition of MMP-2 activity (spectrofluorometric assay, 10 nM MMP-2, 10 µM MCA-Pro-Leu-Gly-Leu-Dap(Dnp)-Ala-Arg-NH2 substrate) at 15 µg/ml HSA-TIMP2: 55%
Substance: human serum albumin-TIMP2 fusion protein
